± gives the standard deviation of the averaged measurements.
Legend:
Saccharomyces cerevisiae [1] = assay: protein stability index of tFT-peptide fusion (C-terminal peptide) (PSI (0-1 scale)); higher = more stable (slower turnover)
Procedure: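 MPS profiling in S. cerevisiae of the tFT-X12 degron library: putative degron peptides plus stable controls, 12 aa, fused to the C-terminus of a sfGFP-mCherry timer. Cells are FACS-sorted into 8 mCherry/sfGFP bins and deep-sequenced. PSI runs from 0 (unstable) to 1 (stable). Backgrounds are wild type, das1Δ and doa10Δ at 30 °C, and wild type, das1Δ, cdc34-1 and cdc53-1 at 37 °C; 2-3 technical replicates each.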

Saccharomyces cerevisiae [2] = assay: as above; details: genetic background: wild type; temperature: 30 C
[3] = genetic background: cdc34-1, temperature: 37 C
[4] = genetic background: cdc53-1, temperature: 37 C
[5] = genetic background: das1 deletion, temperature: 30 C
[6] = genetic background: das1 deletion, temperature: 37 C
[7] = genetic background: doa10 deletion, temperature: 30 C
[8] = genetic background: wild type, temperature: 30 C
[9] = genetic background: wild type, temperature: 37 C
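Also: PSI is a weighted mean of sequencing reads over stability bins, variants kept only with over 10 reads, mCherry proximal and sfGFP distal, peptide attached via GGGS linker.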

Sequence | protein stability index (Saccharomyces cerevisiae [1]; [3]) | protein stability index (Saccharomyces cerevisiae [1]; [4]) | protein stability index (Saccharomyces cerevisiae [1]; [5]) | protein stability index (Saccharomyces cerevisiae [1]; [6]) | protein stability index (Saccharomyces cerevisiae [1]; [7]) | protein stability index (Saccharomyces cerevisiae [1]; [8]) | protein stability index (Saccharomyces cerevisiae [1]; [9]) | protein stability index (Saccharomyces cerevisiae [2])
LSPPPLSFPFSA | 0.704 ± 0.0072 | 0.753 ± 0.02 | 0.623 ± 0.012 | 0.737 ± 0.011 | 0.643 ± 0.017 | 0.666 ± 0.024 | 0.7118 ± 0.0069 | 0.136 ± 0.021
FSLGGVPYVFFV | 0.628 ± 0.05 | 0.694 ± 0.012 | 0.587 ± 0.024 | 0.716 ± 0.01 | 0.195 ± 0.022 | 0.221 ± 0.029 | 0.4579 ± 0.0017 | 0.37 ± 0.019
AISLPVEVLAFS | 0.4 ± 0.028 | 0.387 ± 0.024 | 0.286 ± 0.051 | 0.438 ± 0.022 | 0.255 ± 0.025 | 0.293 ± 0.01 | 0.439 ± 0.021 | 0.383 ± 0.048
RWGLCFVHVTMF | 0.0369 ± 0.011 | 0.0963 ± 0.011 | 0.149 ± 0.046 | 0.215 ± 0.015 | 0.115 ± 0.01 | 0.106 ± 0.039 | 0.152 ± 0.014 | 0.173 ± 0.011
PCVLAIYVWIRS | 0.0479 ± 0.016 | 0.169 ± 0.019 | 0.154 ± 0.037 | 0.2704 ± 0.0022 | 0.083 ± 0.016 | 0.107 ± 0.016 | 0.173 ± 0.011 | 0.163 ± 0.054
SVLVSVVLFVRS | 0.114 ± 0.055 | 0.237 ± 0.021 | 0.176 ± 0.019 | 0.33663 ± 7.1e-05 | 0.126 ± 0.032 | 0.168 ± 0.033 | 0.289 ± 0.026 | 0.279 ± 0.0029
GCVTFVLISFCA | 0.238 ± 0.007 | 0.306 ± 0.039 | 0.225 ± 0.03 | 0.425 ± 0.012 | 0.186 ± 0.035 | 0.208 ± 0.027 | 0.386 ± 0.012 | 0.358 ± 0.016
FVFCTCSFFFLW | 0.5113 ± 0.0046 | 0.532 ± 0.011 | 0.421 ± 0.026 | 0.54 ± 0.021 | 0.374 ± 0.004 | 0.393 ± 0.029 | 0.5103 ± 0.00052 | 0.477 ± 0.0076
GYRGRITRLVNG | 0.661 ± 0.03 | 0.715 ± 0.015 | 0.639 ± 0.0079 | 0.7422 ± 0.00086 | 0.14 ± 0.024 | 0.168 ± 0.021 | 0.369 ± 0.00097 | 0.29 ± 0.035
IVVVVRLSPILG | 0.293 ± 0.016 | 0.397 ± 0.099 | 0.27 ± 0.015 | 0.4272 ± 0.003 | 0.228 ± 0.013 | 0.274 ± 0.016 | 0.401 ± 0.011 | 0.331 ± 0.034
DLPKAYCIEMIG | 0.6033 ± 0.0055 | 0.718 ± 0.015 | 0.613 ± 0.034 | 0.7187 ± 0.005 | 0.198 ± 0.029 | 0.215 ± 0.023 | 0.432 ± 0.02 | 0.328 ± 0.027
SSGRLRFISRIH | 0.654 ± 0.033 | 0.7064 ± 0.0053 | 0.656 ± 0.048 | 0.7487 ± 0.0033 | 0.316 ± 0.019 | 0.347 ± 0.018 | 0.5972 ± 0.0037 | 0.454 ± 0.027
RWRLWVGWWVVG | 0.4532 ± 0.0039 | 0.587 ± 0.0088 | 0.456 ± 0.022 | 0.601 ± 0.013 | 0.1043 ± 0.00095 | 0.118 ± 0.0076 | 0.142 ± 0.017 | 0.12 ± 0.0055
SVVYVIYCGGIL | 0.446 ± 0.0082 | 0.481 ± 0.075 | 0.31 ± 0.036 | 0.555 ± 0.019 | 0.29 ± 0.0048 | 0.336 ± 0.013 | 0.503 ± 0.036 | 0.427 ± 0.036
FFATFVPSFLLC | 0.606 ± 0.023 | 0.674 ± 0.048 | 0.556 ± 0.02 | 0.6776 ± 0.00086 | 0.268 ± 0.0089 | 0.305 ± 0.022 | 0.511 ± 0.021 | 0.407 ± 0.033
SVSMYPKPHLIC | 0.571 ± 0.057 | 0.682 ± 0.023 | 0.596 ± 0.034 | 0.698 ± 0.034 | 0.119 ± 0.015 | 0.13 ± 0.017 | 0.181 ± 0.015 | 0.243 ± 0.0026
EGGLGDRLLGVG | 0.526 ± 0.035 | 0.577 ± 0.0092 | 0.501 ± 0.0078 | 0.573 ± 0.021 | 0.5161 ± 0.0024 | 0.518 ± 0.016 | 0.547 ± 0.0066 | 0.47 ± 0.015
FSRPTYYFIRHS | 0.629 ± 0.048 | 0.696 ± 0.03 | 0.658 ± 0.038 | 0.69 ± 0.011 | 0.26 ± 0.021 | 0.272 ± 0.058 | 0.475 ± 0.048 | 0.403 ± 0.029
CFLLSYRWVFLC | 0.0855 ± 0.0055 | 0.0678 ± 0.0095 | 0.177 ± 0.033 | 0.2381 ± 0.0016 | 0.0531 ± 0.0053 | 0.0411 ± 0.018 | 0.0605 ± 0.03 | 0.0949 ± 0.027
CWFGLVSLFWVV | 0.49 ± 0.051 | 0.52 ± 0.012 | 0.421 ± 0.04 | 0.576 ± 0.0068 | 0.275 ± 0.0067 | 0.299 ± 0.015 | 0.434 ± 0.016 | 0.429

Sequence | protein stability index (Saccharomyces cerevisiae [1]; [3]) | protein stability index (Saccharomyces cerevisiae [1]; [4]) | protein stability index (Saccharomyces cerevisiae [1]; [5]) | protein stability index (Saccharomyces cerevisiae [1]; [6]) | protein stability index (Saccharomyces cerevisiae [1]; [7]) | protein stability index (Saccharomyces cerevisiae [1]; [8]) | protein stability index (Saccharomyces cerevisiae [1]; [9]) | protein stability index (Saccharomyces cerevisiae [2])
GVLLLGSYQWVG | 0.306 ± 0.031 | 0.394 ± 0.021 | 0.368 ± 0.029 | 0.334 ± 0.0053 | 0.395 ± 0.008 | 0.373 ± 0.025 | 0.317 ± 0.0059 | 0.313 ± 0.007
PIKIYGYLTTVV | 0.597 ± 0.024 | 0.644 ± 0.023 | 0.517 ± 0.032 | 0.653 ± 0.02 | 0.474 ± 0.032 | 0.475 ± 0.02 | 0.6337 ± 0.0023 | 0.523 ± 0.045
SCLLVVVSTSGN | 0.5364 ± 0.0018 | 0.573 ± 0.0061 | 0.404 ± 0.043 | 0.611 ± 0.0019 | 0.374 ± 0.015 | 0.4057 ± 0.002 | 0.588 ± 0.022 | 0.433 ± 0.0062
GRWLYSACVALN | 0.62 ± 0.072 | 0.71 ± 0.014 | 0.596 ± 0.022 | 0.7063 ± 0.0033 | 0.195 ± 0.0073 | 0.196 ± 0.026 | 0.4027 ± 0.0021 | 0.395 ± 0.017
SLCVVIFFSSIT | 0.301 ± 0.011 | 0.437 ± 0.037 | 0.274 ± 0.031 | 0.468 ± 0.019 | 0.2524 ± 0.0025 | 0.266 ± 0.041 | 0.413 ± 0.0017 | 0.356 ± 0.02
RLVMAVRVAAGG | 0.509 ± 0.025 | 0.532 ± 0.0023 | 0.347 ± 0.033 | 0.55975 ± 0.00038 | 0.327 ± 0.011 | 0.349 ± 0.015 | 0.524 ± 0.031 | 0.451 ± 0.034
EMPRLSKAIRVT | 0.5407 ± 0.00036 | 0.5702 ± 0.0053 | 0.371 ± 0.026 | 0.603 ± 0.011 | 0.279 ± 0.0047 | 0.314 ± 0.028 | 0.4961 ± 0.0028 | 0.44 ± 0.029
QCLSYFFPVPVA | 0.073 ± 0.042 | 0.0838 ± 0.012 | 0.186 ± 0.03 | 0.227 ± 0.0065 | 0.147 ± 0.014 | 0.182 ± 0.02 | 0.192 ± 0.018 | 0.258 ± 0.035
LLVRSFIFPLVY | 0.3906 ± 0.0039 | 0.428 ± 0.018 | 0.294 ± 0.053 | 0.482 ± 0.018 | 0.282 ± 0.016 | 0.289 ± 0.013 | 0.441 ± 0.012 | 0.367 ± 0.034
LFFVVFFLLFLL | 0.402 ± 0.0091 | 0.446 ± 0.028 | 0.36 ± 0.026 | 0.477 ± 0.029 | 0.389 ± 0.0099 | 0.337 ± 0.023 | 0.453 ± 0.026 | 0.411 ± 0.025
YSVERCLFVSVA | 0.422 ± 0.025 | 0.4443 ± 0.0013 | 0.352 ± 0.034 | 0.502 ± 0.013 | 0.287 ± 0.02 | 0.314 ± 0.01 | 0.443 ± 0.018 | 0.414 ± 0.034
NHKNANAATLIN | 0.645 ± 0.053 | 0.7192 ± 0.0061 | 0.641 ± 0.036 | 0.7266 ± 0.0038 | 0.268 ± 0.016 | 0.352 ± 0.038 | 0.6016 ± 0.0051 | 0.4548 ± 0.0018
PVKGTMIKAKNT | 0.659 ± 0.088 | 0.73 ± 0.027 | 0.607 ± 0.026 | 0.71 ± 0.0026 | 0.184 ± 0.017 | 0.193 ± 0.024 | 0.341 ± 0.043 | 0.354 ± 0.068
RFFFSSFPLLIS | 0.327 ± 0.049 | 0.2628 ± 0.0026 | 0.349 ± 0.047 | 0.471 ± 0.014 | 0.207 ± 0.0091 | 0.199 ± 0.025 | 0.307 ± 0.016 | 0.282 ± 0.013
FSAVVCPTVFLC | 0.51 ± 0.051 | 0.725 ± 0.019 | 0.603 ± 0.015 | 0.746 ± 0.019 | 0.0928 ± 0.02 | 0.0973 ± 0.022 | 0.0951 ± 0.0051 | 0.185 ± 0.063
FCGLLGVCLVMG | 0.208 ± 0.042 | 0.298 ± 0.006 | 0.243 ± 0.032 | 0.389 ± 0.013 | 0.185 ± 0.016 | 0.221 ± 0.03 | 0.354 ± 0.011 | 0.326 ± 0.032
LFSSFFVFRLLV | 0.322 ± 0.031 | 0.432 ± 0.039 | 0.455 ± 0.028 | 0.581 ± 0.0041 | 0.0949 ± 0.016 | 0.0904 ± 0.029 | 0.0847 ± 0.0039 | 0.146 ± 0.011
FICLLFSCVYLG | 0.51 ± 0.025 | 0.535 ± 0.013 | 0.464 ± 0.026 | 0.593 ± 0.039 | 0.3776 ± 0.0014 | 0.382 ± 0.026 | 0.5293 ± 0.005 | 0.41 ± 0.072
LVLGVEVCFVLG | 0.102 ± 0.0073 | 0.16 ± 0.011 | 0.177 ± 0.033 | 0.296 ± 0.0065 | 0.147 ± 0.012 | 0.168 ± 0.032 | 0.246 ± 0.022 | 0.273 ± 0.015
